# Test results as given in US20110142842A1 (MEDINNOVA, published 2011).
# B1: Peptide ID 5 YLAVGIMFL (CD64) (peptide)
# peptide: YLAVGIMFL
# B2: Peptide ID 69 YISRDTCIV (HA-2) (peptide)
# peptide: YISRDTCIV
# B3: Peptide ID 71 SMEEAKQLV (MPO) (peptide)
# peptide: SMEEAKQLV
# B4: Peptide ID 88 FLLLTISLL (CD52) (peptide)
# peptide: FLLLTISLL
# B5: Peptide ID 30 ALAGVLAIL (MPO) (peptide)
# peptide: ALAGVLAIL
# B6: Peptide ID 89 VLLRWEEEL (CD50) (peptide)
# peptide: VLLRWEEEL
# B7: Peptide ID 64 GLADVAVGA (CD11a) (peptide)
# peptide: GLADVAVGA
# B8: Peptide ID 59 SICEGTVEV (CD5) (peptide)
# peptide: SICEGTVEV
# B9: Peptide ID 83 LMGTLIAKV (HA-1) (peptide)
# peptide: LMGTLIAKV
# B10: Peptide ID 62 FMQPLFLVA (HA-1) (peptide)
# peptide: FMQPLFLVA
# B11: Peptide ID 74 ELLDVSWLI (TdT) (peptide)
# peptide: ELLDVSWLI
# B12: Peptide ID 67 KLLLALAGV (MPO) (peptide)
# peptide: KLLLALAGV
# B13: Peptide ID 23 RLYENRASL (HA-1) (peptide)
# peptide: RLYENRASL
# B14: Peptide ID 76 LLEGNLVTL (CD64) (peptide)
# peptide: LLEGNLVTL
# B15: Peptide ID 34 VLQELNVTV (PR3) (peptide)
# peptide: VLQELNVTV
# B16: Peptide ID 3 ILLWEIFSL (FLT3) (peptide)
# peptide: ILLWEIFSL
# B17: Peptide ID 60 FIYGVILTA (TCR_TV) (peptide)
# peptide: FIYGVILTA
# B18: Peptide ID 6 SLFEGIYTI (FLT3) (peptide)
# peptide: SLFEGIYTI
# B19: Peptide ID 8 FLLGLGLGV (CD7) (peptide)
# peptide: FLLGLGLGV
# B20: Peptide ID 77 GLMATPAKL (MPO) (peptide)
# peptide: GLMATPAKL
# B21: Peptide ID 28 LLLPLLLAL (CD7) (peptide)
# peptide: LLLPLLLAL
# B22: Peptide ID 36 LLLQVSSRV (CD64) (peptide)
# peptide: LLLQVSSRV
# B23: Peptide ID 41 GLYQGLSTA (TCR_TV) (peptide)
# peptide: GLYQGLSTA
# B24: Peptide ID 33 GLLSPQAQV (FLT3) (peptide)
# peptide: GLLSPQAQV
# B25: Peptide ID 90 VLLVVLLVV (CD5) (peptide)
# peptide: VLLVVLLVV
# B26: Peptide ID 32 SLHSETWEI (CD11a) (peptide)
# peptide: SLHSETWEI
# B27: Peptide ID 51 LLLSGAARA (PR3) (peptide)
# peptide: LLLSGAARA
# B28: Peptide ID 48 ILYPINILI (CD11a) (peptide)
# peptide: ILYPINILI
# B29: Peptide ID 72 TLPQLFLKV (FLT3) (peptide)
# peptide: TLPQLFLKV
# B30: Peptide ID 91 YLALGDQML (CD50) (peptide)
# peptide: YLALGDQML
# B31: Peptide ID 22 SLWRRPFNV (MPO) (peptide)
# peptide: SLWRRPFNV
# B32: Peptide ID 31 KLFTSVFGV (TdT) (peptide)
# peptide: KLFTSVFGV
# B33: Peptide ID 45 GMGWAAFNL (CD50) (peptide)
# peptide: GMGWAAFNL
# B34: Peptide ID 27 LLMSFFILL (CD53) (peptide)
# peptide: LLMSFFILL
# B35: Peptide ID 43 RLFEQVMRI (MPO) (peptide)
# peptide: RLFEQVMRI
# B36: Peptide ID 26 TLQPPWVSV (CD64) (peptide)
# peptide: TLQPPWVSV
# B37: Peptide ID 35 VLIGILLLV (CD18) (peptide)
# peptide: VLIGILLLV
# B38: Peptide ID 37 DMKDSIWWV (PU.1) (peptide)
# peptide: DMKDSIWWV
# B39: Peptide ID 38 HLYGSNASL (CD11a) (peptide)
# peptide: HLYGSNASL
# B40: Peptide ID 24 SMLDDLRNV (CD18) (peptide)
# peptide: SMLDDLRNV
# B41: Peptide ID 29 LLSGFFFFA (CD11a) (peptide)
# peptide: LLSGFFFFA
# B42: Peptide ID 86 LLWAGALAM (CD33) (peptide)
# peptide: LLWAGALAM
# B43: Peptide ID 81 LLLTISLLV (CD52) (peptide)
# peptide: LLLTISLLV
# B44: Peptide ID 47 LLAEVTLAI (CD53) (peptide)
# peptide: LLAEVTLAI
# B45: Peptide ID 25 ILFAFVSSV (FLT3) (peptide)
# peptide: ILFAFVSSV
# B46: Peptide ID 54 EMDEELHYA (CD33) (peptide)
# peptide: EMDEELHYA
# B47: Peptide ID 63 WLQAQKVQV (TdT) (peptide)
# peptide: WLQAQKVQV
# B48: Peptide ID 85 LVAPRFLEV (CD50) (peptide)
# peptide: LVAPRFLEV
# B49: Peptide ID 4 FLYIGIITI (CD53) (peptide)
# peptide: FLYIGIITI
# B50: Peptide ID 7 FLDCQIHRV (CD127) (peptide)
# peptide: FLDCQIHRV
# B51: Peptide ID 84 LIQPFMFRL (MPO) (peptide)
# peptide: LIQPFMFRL
# B52: Peptide ID 66 RLYQFLLDL (PU.1) (peptide)
# peptide: RLYQFLLDL
# B53: Peptide ID 42 LLIHNNFGV (CD53) (peptide)
# peptide: LLIHNNFGV
# B54: Peptide ID 49 VLFHNLPSL (CD53) (peptide)
# peptide: VLFHNLPSL
# B55: Peptide ID 58 LLLLLIFIV (CD11a) (peptide)
# peptide: LLLLLIFIV
# B56: Peptide ID 73 ALASVLLAL (PR3) (peptide)
# peptide: ALASVLLAL
# B57: Peptide ID 80 AIWLFIFNV (CD19) (peptide)
# peptide: AIWLFIFNV
# B58: Peptide ID 53 ALARGLPGA (CD7) (peptide)
# peptide: ALARGLPGA
# B59: Peptide ID 56 SMSEEVTYA (CLL-1) (peptide)
# peptide: SMSEEVTYA
# B60: Peptide ID 21 YLMDLSYSM (CD18) (peptide)
# peptide: YLMDLSYSM
# B61: Peptide ID 65 IMSDSNYVV (FLT3) (peptide)
# peptide: IMSDSNYVV
# B62: Peptide ID 46 KMAEAYSEI (TCR_TV) (peptide)
# peptide: KMAEAYSEI
# B63: Peptide ID 92 LLLTNTFGA (CD11a) (peptide)
# peptide: LLLTNTFGA
# B64: Peptide ID 94 HLLGPWLLL (CD22) (peptide)
# peptide: HLLGPWLLL
# B65: Peptide ID 40 LMIPAGIYA (CD20) (peptide)
# peptide: LMIPAGIYA
# B66: Peptide ID 93 YLGYTVTWL (CD11a) (peptide)
# peptide: YLGYTVTWL
# B67: Peptide ID 68 LLIILLAEV (CD53) (peptide)
# peptide: LLIILLAEV
# B68: Peptide ID 57 NLEEDAYWV (CD11a) (peptide)
# peptide: NLEEDAYWV
# B69: Peptide ID 39 LLRTGGWKV (CD19) (peptide)
# peptide: LLRTGGWKV
# B70: Peptide ID 52 YLRPGQAAA (CD18) (peptide)
# peptide: YLRPGQAAA
# B71: Peptide ID 2 YLKDGWHMV (CD5) (peptide)
# peptide: YLKDGWHMV
# B72: Peptide ID 70 FLQDTFPQQ (CD127) (peptide)
# peptide: FLQDTFPQQ
# B73: Peptide ID 50 YLIFCLCSL (CD19) (peptide)
# peptide: YLIFCLCSL
# B74: Peptide ID 55 KLMSPKLYV (CD19) (peptide)
# peptide: KLMSPKLYV
# B75: Peptide ID 44 VLTPAQLNV (MPO) (peptide)
# peptide: VLTPAQLNV
# B76: Peptide ID 61 ILTALFLRV (TCR_TV) (peptide)
# peptide: ILTALFLRV
# Molecular target: HLA-A*0201 (human, UniProt A*02:01)
# Assay: REVEAL MHC binding assay (ProImmune)
row,Binder,% Pass/fail control
1,B1,155 % of pass/fail control
2,B2,133 % of pass/fail control
3,B3,169 % of pass/fail control
4,B4,302 % of pass/fail control
5,B5,210 % of pass/fail control
6,B6,184 % of pass/fail control
7,B7,206 % of pass/fail control
8,B8,130 % of pass/fail control
9,B9,316 % of pass/fail control
10,B10,215 % of pass/fail control
11,B11,220 % of pass/fail control
12,B12,216 % of pass/fail control
13,B13,266 % of pass/fail control
14,B14,173 % of pass/fail control
15,B15,170 % of pass/fail control
16,B16,199 % of pass/fail control
17,B17,149 % of pass/fail control
18,B18,183 % of pass/fail control
19,B19,202 % of pass/fail control
20,B20,218 % of pass/fail control
21,B21,253 % of pass/fail control
22,B22,180 % of pass/fail control
23,B23,107 % of pass/fail control
24,B24,170 % of pass/fail control
25,B25,71.5 % of pass/fail control
26,B26,179 % of pass/fail control

row,Binder,% Pass/fail control
1,B27,178 % of pass/fail control
2,B28,214 % of pass/fail control
3,B29,182 % of pass/fail control
4,B30,197 % of pass/fail control
5,B31,301 % of pass/fail control
6,B32,200 % of pass/fail control
7,B33,193 % of pass/fail control
8,B34,189 % of pass/fail control
9,B35,192 % of pass/fail control
10,B36,197 % of pass/fail control
11,B37,117 % of pass/fail control
12,B38,131 % of pass/fail control
13,B39,135 % of pass/fail control
14,B40,251 % of pass/fail control
15,B41,210 % of pass/fail control
16,B42,321 % of pass/fail control
17,B43,250 % of pass/fail control
18,B44,199 % of pass/fail control
19,B45,221 % of pass/fail control
20,B46,117 % of pass/fail control
21,B47,190 % of pass/fail control
22,B48,340 % of pass/fail control
23,B49,136 % of pass/fail control
24,B50,224 % of pass/fail control
25,B51,311 % of pass/fail control
26,B52,234 % of pass/fail control

row,Binder,% Pass/fail control
1,B53,191 % of pass/fail control
2,B54,216 % of pass/fail control
3,B55,6.4 % of pass/fail control
4,B56,139 % of pass/fail control
5,B57,199 % of pass/fail control
6,B58,215 % of pass/fail control
7,B59,158 % of pass/fail control
8,B60,198 % of pass/fail control
9,B61,220 % of pass/fail control
10,B62,200 % of pass/fail control
11,B63,196 % of pass/fail control
12,B64,212 % of pass/fail control
13,B65,142 % of pass/fail control
14,B66,239 % of pass/fail control
15,B67,99.2 % of pass/fail control
16,B68,64.9 % of pass/fail control
17,B69,124 % of pass/fail control
18,B70,125 % of pass/fail control
19,B71,182 % of pass/fail control
20,B72,49.8 % of pass/fail control
21,B73,71.2 % of pass/fail control
22,B74,232 % of pass/fail control
23,B75,175 % of pass/fail control
24,B76,159 % of pass/fail control
